According to the supplement of paper PMC12636428:

System: Saccharomyces cerevisiae
Assay: transcriptional activation domain activity (GFP:mCherry ratio, weighted mean of sorted bins, harmonized to initial dataset scale) (arbitrary fluorescence ratio units); higher = stronger transcriptional activation
Conditions: beta-estradiol 1 µM; induction time 4 h
In short: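 Yeast diploids with a GFP reporter received barcoded protein tiles, fused to an estradiol-inducible synthetic transcription factor, at the URA3 locus. Cultures were diluted 1:5 into SC holding 1 uM beta-estradiol, incubated 4 hours at 30 °C, sorted into 8 bins on GFP:mCherry ratio, and sequenced for barcodes, with tiles under 50 reads discarded. Activation activity values come from the read-weighted mean of bin median fluorescence, averaged across barcodes and linearly placed on the initial dataset scale.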

| Sequence | transcriptional activation domain activity |
| --- | --- |
| MFFRRFLMYFVELTGIMYCLIVFFMVSLFLLYRRNMIEEQFPNKTIILYGKRV | 58500 |
| MLLNMLMLWILYIFSVTTFSTFRYFIILPVPSLMDYSEFFRACMLGAFVLSPV | 71000 |
| LNVLLGFLLLCFPNLERMVLNFGTVIAGPNHPGTLRKGYCEHCKLGVNVLEFD | 62000 |
| SSTWFEPLENIISSASSSSIGSPIEDQFISSNNEESALFPTDQFFSNPSSYSH | 84600 |
| NSVPGSPETPTSSSLDGSRETGYLRVRVVSAKDLAARMRSRTATCSASAGSPL | 42100 |
| MPAYLDKPLTFLAFDWCVTFFFFCCFFLLILFLSLLVINVIVLCLLPLISLVS | < 6570 |
| LVREHELLGVIICHLVKSNQSGLTDLEYLLNIVKKIDKYDNLLVHYFPALGAL | 24500 |
| MSTGVSSFLQYVFLFTPYFIFSYFLAVDCWCFSLPLFCLAIPSIFLFLFLFLL | 24900 |
| MIYGWSIFFFFFFFALHVYIRVFLWGRFCLRVVWVRLFLFHFSGWGCNFGGFV | 49700 |
| MDKLVQYEHTFLPPPHMQYLSYFDCLENLAHYIDAIHPNNLNMWFFLIYDQCI | 63300 |
| RFNLPICGEIKMYRGWTVIDLVHMVCINTACKISNLKHALRKLSISFTNLVKP | 54700 |
| GASTSAFGTPSALGAKPNPFGTPATGGAFGQPAAAPAFGQPTQPAGAFGQPAQ | 40300 |
| GHSIPRLNFGDGYNLNNGRAYRGGTWASTLRYRKSNGLWYWIGCVNFWHTWIF | 75000 |
| VGEWMGGGVGCLAAWLGHGIRIFGGTEYWLVPEFFFPLFLFFSFPPWSLVLFC | 74100 |
| SKQAGVGGEDEGEEDVPEDFGHSDNIRKKLLEVLGRDRRDRVLSSLYIVRADG | 43800 |
| MGWGGASGFSPVVGIFFFTGPLLLFLSTVFLWIQAQFFPMMVCGLFCVFWLSF | 60500 |
| MELFFRLFFWLMSWLLQLTHYFNTFTVLLYIHSLFSGVWFCKVLGFSFFFLYH | 51600 |
| FLVRLFVLPVTLCMLYRCSVSLDLSRLNGSARNEWFNYWNKALLLGMTLFSMR | 62500 |
| MIERCLMMGPSLGLYVFDLFLLEVGYLAFYAHFNLFSMFAYVFPFIPLVGIRC | 41500 |
| EGGEGGDGAGGDGAAAGGKDGEGGKGGGKEEKGGKAGKDAKGGAKKPGSGKKG | 16500 |
| LWDANSFLTPMAQGLFKNLKSFEMLGMNCKVIRALILLIHRLWLLTNRLYRYN | 34000 |

| Sequence | transcriptional activation domain activity |
| --- | --- |
| YCGDDMHSLRIVVAVLALLTTLKSIHAFAIVWVQSIVHFGDLQGAILLNYTAW | 76900 |
| RRAVRPADADEREAVARVRPRARRRLGDVRDELDPRRGRRRVHGRIWGGVVRL | 68000 |
| AKDGEEEKEKPKRGRKRKEAPAAEGEAEGEAADDAEPPAKKTKPASKAAPASK | 23100 |
| KDQIMYYIHLVIMISTIIQALVQHMIVVNTLPTYFCHPINVFSNFFWHVQFTL | 39300 |
| HRRHHVLLPHPAHTLLKGCFEPAFHNSIWHILSCHMYIPCTPILLLLIIQHVL | 33200 |
| IWRRQQVELWCNYRVPGRQWLFGHKRLRHVIHLIPGRTHLSLYSSVDRIFCLH | 48600 |
| VGETVVTFCYEDGIMVMAMVGSGFMGYYLYTLQVKHSFSGPGPWFLGMALICL | 68700 |
| ESLKHHEGINMVWKKFQSIFRIIEGIVYYEPVYRAFVRHILHHLHLDNVLWVD | 70300 |
| MSSLFFLRSPCFYLYLYHYLVSFLIFMAFCLVCCLPLLFHFWVFCLLLCFRIY | 63600 |
| IRSSSHLFPISPFYFVFLFWSSFSVFTMLLLPPTIPRSNQFRAFSSFLWFSWI | 67000 |
| RKADPPKEKKKPAVPAAEGAAAPAKKEKKDKKDKEAAAVSVEATEVKEEAAPA | 13900 |
| MILNGELERCRESLHIVSEYVHSILRLNVLCLRLLYRRMDPSREPVDLFEVAV | 54500 |
| VIGGGATGSGVAVDAASRGLKVALVERDDFSSGTSSKSTKLVHGGVRYLQKAV | 69700 |
| LCFVFVLNIQAVLAVLWVIATKWIVIGRRRDGQYAWDSSSYCQRWQLHLVLSR | 71600 |
| MHTPFLFLPPCPSRTRLLLFFSLILFLLVLVPAPCHAQPWNLGTLFFIFWLAS | 52700 |
| YIPVNYFLVVLYSNKEYPGLYKEIEKGLILLYHICTIRNDGTMFLNMKLYKNK | 36000 |
| IIQCLVLGKYTKCAPRTIETLLLYLHLKYNQHEDNQMEIWVLLGVIVRLALRM | 44700 |
| SLILVTYNTSHIACFYLLPQPHYFHLTSFLFLSIFFFLFSSLEHGSSFLAFFH | 52500 |
| QVCTLLGASGGSSFVRGGSYLQGGYGLNTADLWRRNFLVLVGWILFFWLLQTI | 54800 |
| DAAKPAQGLFGGALAAGKSGETPKPAGSLFGAPSSSTKTGEEAKPAGGLFGAG | 26100 |
| MAMGLMCKACLLTPQHFLPLLWPSYPRPFFFFFFFYYSYCCSCCDCISIFGLN | 43400 |

| Sequence | transcriptional activation domain activity |
| --- | --- |
| LASIVMFRTFHEGSTWTGLTRTRMFWYVFLFSFFWYWVPGYIMPILSFFSILC | 69200 |
| VKEGGKDLVQLPKSWVEIDGEILVRAVLLLLHPGATLYGPVPMKIARNWPFAS | 60700 |
| ACAVLLSVVDGLTPLSIICASCSTTGAYWFCCFSMRFFVFIDLLGTLLLYLII | 74900 |
| QVGRKANQKEEKETEKERTEKDKKQGRVGVGGVAKTAIVAGAWCYVVGVVAEL | 34600 |
| FSFFFFLFSLFLSFPSFLLPSFLLLFLSFYFSPSYLLLCLFSLIFYKLWPLFL | 25500 |
| MMDCRRRTGFQAFFLSFLSLVLSSFFLLCLFNPYVCVFFLIFHYRLTFSVIWS | 49100 |
| GPLCMDQYRRIFGVTRRPGLSVDSTVLASDLNGRVSILVLLRNRLFRLSLPTG | 42400 |
| VPYQKYLYYPLLCFGRFNLYVLSLEFILRDKGPKSNRWHRFYELSGQVFFWFW | 71200 |
| VNYHLAMRYFMRYLFTQDLLPLLLAAKEQCQQAHVMCVQGAGFGLRIRTDDIG | 45000 |
| QLAIELSAFADDSFIFPDEDKPSNNNNNSNNGNDDHSNHDVLHEDPSTNNRQR | 16300 |
| NLMGSQARSNSQTPTASTIYEEAESQSSYLDDMFRTSQGGRPVTQNSISSIGQ | 56100 |
| ASVVQWLGFHPSKVEVRVRFTAVANKRSSRTSLLLLVVWSWRRQRWMLRWSSG | 49300 |
| TLAPNGSSNLVHLFAAHSIGKVRSSLLSSLNRKFSSNPSSPCSYFLIFQLFTR | 61100 |
| ETEGFAKMAKAMGFGVYGLPSYIIKHIYNNCTHLFVVWHYGTLLIHLTAYPSF | 73700 |
| MGVCGVFISFLAWGGCLVLLNVRLHLRGLIFSLSNLFYDTVHVTCIWFFLFRL | 65300 |
| LQHLVVPILFLGPLYATYLNQTLPFQAFWDYDEYVLRKYFSFMGLRTYIIGPI | 52300 |
| EPRISEGGLAALVASSPCKPAAVPILLTGPPKQAKACSSRLTGTHRPASNCKS | 36500 |
| MFLLLKYDFSLTDLLRILLRLNMFPILLSFIMDRPYTSYTLPWLISFWYLVFF | 66500 |
| KIISAFGWNADKHLGFALLQLCMDGNRIRSPLAAMMLLMYYVTLMTHCPQILT | 63700 |
| VKPIPPRPSTGLRYRVETLIGITGYRMAKFRPSWSEVVLACLNVLWRPQFFFV | 55000 |
| MFGYDSSRSSCSFLLPRESSIRLMVYFLYLLRVFYLLFFVFHLFLLPSSLFFF | 41200 |

| Sequence | transcriptional activation domain activity |
| --- | --- |
| RHICLILINIAVGLRFIFYAIDPYCIYNIFNPILNRLLFVTFYWIALLAYVLM | 48100 |
| SNPKELFFIRILLDLSWIDMRVAICSLRPILGEEPRKFREMLLVLPTLCSEIY | 66100 |
| AEDSDASMDDAPAPKEAAKKAAPVEAGSDSESDSEAEKKKKKAAKKSKKEVVP | 22600 |
| EKTVEQPEELKETGGKEPRIERKLPLQYDHHQRKTRDNQMFQLAVVIYFLGKL | 40300 |
| MEWMGGWLVLGGWIYLFCSVMFKLDRLVVFLEVFFFYLLLCVIVLVMGLVVML | 38800 |
| SGPSSNDELIEKGRMLVDELSEAGGGIKDGARNNTSSLYLHLVRVSIDKFSHA | 18900 |
| HVYGPTLVVHRYSLPLLFYYFVLFMFLESLPRLFRCISLFFQLAQLLMLLVPI | 34100 |
| NAFGAYSTDPSNIAEGLNTVGFRSGFAFFFVSMGIMCLIYLVCSLRTNVCFFM | 26100 |
| MLPSPGETKNHAKSQSEIIQMLTDEFWANYNSGWEELINQSEFSTLFDDYKDN | 116000 |
| MYICIYLLLGFVVWGISLICLVVIVILYILDNSFCSPYTSCSTSFPFLISLFY | 40300 |
| LAHCGCSQSLLLLLFSFPYRYYIILFHYWVLRGGLTIPIYRVLCGFFLPSFVL | 62200 |
| MKGIRLYFRYVLLHVLLLLPSLPFFFPYLCRRFTCSFMNILIGFLFCFFLYIC | 55300 |
| MDESDGERGGGYGVFFLLFFFFFFLSFLFSFWLFLLFTFVLISFFGAITLLKE | 25600 |
| EWMKVVYGFDQKPIPSGACSGSIAKIFGTNTSAFELLVLKRRIMGPCWIQIKK | 55800 |
| TGGAGATRTSKAKADRHVTQAGHRRLRAQAACERCRRRKLKCEPSGASCVACV | 48800 |
| EEDLWTMTNLFVSPVARSLPCTSLLLCLCSLLVYLLASLTFPYLAFFLVFILF | 53000 |
| YNIRAKGFNIFNITISVALVFNQYVNPIALAALTWKYYVVYCVWLVCECIFLY | 60100 |
| MFCLRSWIPILFFLTNASPIYLLLFISATYTLNRPCVYCSLLLGILVLALFDF | 28600 |
| MLFYFYFYFYFYAFSIFSFYVIFYFLYFFFLFRPGLLYLLLLFFSILFVLFLP | 64900 |
| RCPAARLASSAPSAPPTPASASRTCPRPPRPSPRRTSSKSCSTRSSSASATPR | 48000 |
